From patent CN112125974A (BIORAY LABORATORIES INC, dated 2020)
Blank lines part the entries; values can stand above or below the binder they belong to.

Columns and labels:
biotin-BCMA抗原 (human) = biotin-BCMA抗原 (human) (UniProt Q02223); experiment: flow cytometry, T cells 72 h after infection, 0.2 μg/ml biotin-BCMA, APC-Streptavidin
[1] = molecular target: T1, BCMA on BCMA+ target cells (NCI-H929; K562-BCMA) (human, UniProt Q02223 1-184); experiment: cell-based or functional assay
T1 sequence (looked up): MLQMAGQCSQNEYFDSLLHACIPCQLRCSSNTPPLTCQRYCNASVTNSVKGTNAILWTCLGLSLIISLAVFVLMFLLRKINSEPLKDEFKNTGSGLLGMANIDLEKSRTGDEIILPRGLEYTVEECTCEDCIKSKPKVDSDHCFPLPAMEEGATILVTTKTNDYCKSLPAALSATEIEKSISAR

人BCMA(hBCMA)蛋白 (human) = 人BCMA(hBCMA)蛋白 (human) (UniProt Q02223); experiment: phage ELISA, 0.5 μg/ml hBCMA coated, phage supernatant, anti-M13-HRP

B1: 2073嵌合抗原受体 (CAR-BCMA-2073, on T cells CAR-BCMA-2073-T) (other)
chain: DIVMTQSPDSLAVSLGERATINCKSSQNVLYSSNNRNYLAWYQQKPGQPPKLLIYWASTRESGVPDRFSGSGSGTDFTLTISSLQAEDVAVYYCQQYYGSVVTFGGGTKVEIKGSTSGSGKPGSGEGSTKGQVQLQQSGPGLVKPSQTLSLTCAISGDSVSSNSAAWNWIRQSPSRGLEWLGRTYYRSKWYNDYALSVKSRITINPDTSKNQFSLQLNSVTPEDTAVYYCARGASSFDYWGQGTLVTVSSTTTPAPRPPTPAPTIASQPLSLRPEACRPAAGGAVHTRGLDFACDIYIWAPLAGTCGVLLLSLVITLYCKRGRKKLLYIFKQPFMRPVQTTQEEDGCSCRFPEEEEGGCELRVKFSRSADAPAYKQGQNQLYNELNLGRREEYDVLDKRRGRDPEMGGKPRRKNPQEGLYNELQKDKMAEAYSEIGMKGERRRGKGHDGLYQGLSTATKDTYDALHMQALPPR
- CAR-BCMA阳性率 (percent of T cells stained by biotin-BCMA) (biotin-BCMA抗原 (human)): 45.1%
- proportion of target cells K562-BCMA in total cells, co-culture E:T 7:1, 0 h [1]: 8.69%
- proportion of target cells K562-BCMA in total cells, co-culture E:T 7:1, 48 h [1]: 6.1%
- proportion of target cells NCI-H929 in total cells, co-culture E:T 5:1, end [1]: 0.435%
- proportion of target cells NCI-H929 in total cells, co-culture E:T 5:1, start [1]: 15.4%

B5: 2079嵌合抗原受体 (CAR-BCMA-2079, on T cells CAR-BCMA-2079-T) (other)
chain: QSALTQPASVSGSPGQSITMSCTGTSSDVGGYKYVSWYQQHPGKAPQLMIHDVRERPSGVSNRFSGSKSGNTASLTISGLQAEDEADYYCSSFTNNSTFVFGTGTKVTVLGSTSGSGKPGSGEGSTKGQVQLQQSGPGLVKPSQTLSLTCAISGDSVSSNSAAWNWIRQSPSRGLEWLGRTYYRSTWYNDYAVSVKSRITINPDTSKNQFSLQLNSVTPEDTAVYYCARGTGTLDYWGQGTLVTVSSTTTPAPRPPTPAPTIASQPLSLRPEACRPAAGGAVHTRGLDFACDIYIWAPLAGTCGVLLLSLVITLYCKRGRKKLLYIFKQPFMRPVQTTQEEDGCSCRFPEEEEGGCELRVKFSRSADAPAYKQGQNQLYNELNLGRREEYDVLDKRRGRDPEMGGKPRRKNPQEGLYNELQKDKMAEAYSEIGMKGERRRGKGHDGLYQGLSTATKDTYDALHMQALPPR
- CAR-BCMA阳性率 (percent of T cells stained by biotin-BCMA) (biotin-BCMA抗原 (human)): 22.3%
- proportion of target cells K562-BCMA in total cells, co-culture E:T 7:1, 0 h [1]: 9.28%
- proportion of target cells K562-BCMA in total cells, co-culture E:T 7:1, 48 h [1]: 8.69%
- proportion of target cells NCI-H929 in total cells, co-culture E:T 5:1, end [1]: 6.63%
- proportion of target cells NCI-H929 in total cells, co-culture E:T 5:1, start [1]: 11.3%

Other lines, results leading:

- OD450 (人BCMA(hBCMA)蛋白 (human)): > 1.5 OD450
B2: 抗BCMA单链抗体4(命名为抗体2082) (scFv, V domains shown)
VH: QVQLQQSGPALVKPSQTLSLTCVISGDSVSSNSASWTWIRQSPSRGLEWLGRTYRRADRWYYDYALSLNSRLTINPDTSKNHFALHLTSVTPEDTAVYYCSREYWGGSFDVWGQGTTVTVSS
VL: QPVLTQPASVSGSPGQSITISCTGTSSDVGGYDYVSWYQQHPGKAPKLMLYEVNNRPSGVSNRFSGSKSGNTASLTISGLQAEDEGAYYCSSYTSSNTHVVFGGGTQLTVL

- OD450 (人BCMA(hBCMA)蛋白 (human)): > 1.5 OD450
B3: 抗BCMA单链抗体3(命名为抗体2079) (scFv, V domains shown)
VH: QVQLQQSGPGLVKPSQTLSLTCAISGDSVSSNSAAWNWIRQSPSRGLEWLGRTYYRSTWYNDYAVSVKSRITINPDTSKNQFSLQLNSVTPEDTAVYYCARGTGTLDYWGQGTLVTVSS
VL: QSALTQPASVSGSPGQSITMSCTGTSSDVGGYKYVSWYQQHPGKAPQLMIHDVRERPSGVSNRFSGSKSGNTASLTISGLQAEDEADYYCSSFTNNSTFVFGTGTKVTVL

- OD450 (人BCMA(hBCMA)蛋白 (human)): > 1.5 OD450
B4: 抗BCMA单链抗体2(命名为抗体2077) (scFv, V domains shown)
VH: QVQLQQSGPGLVKPSQTLSLTCAISGDSVSSNSAAWNWIRQSPSRGLEWLGRTYYRSKWYNDYAVSVKSRITINPDTSKNQFSLQLNSVTPEDTAVYYCARLAYEVRSTDWYFDLWGRGTLVTVSS
VL: QPVLTQPPSVSEAPRQRVTISCSGSSSNIGNNAVNWYQQLPGKAPKLLIYYDDLLPSGVSDRFSGSKSGTSASLAISGLQSEDEADYYCAAWDDSLNGWVFGGGTKLTVL
